# Assays:
# [1] = molecular target: ACE2(18–740)-QMP: truncated dimeric human ACE2 (residues 18–740) fused to the N-terminal end of engi (human) (UniProt Q9BYF1); experiment: SPR
# [2] = molecular target: ACE2(18–740)-QMP: truncated dimeric human ACE2 (residues 18–740) fused to the N-terminal end of engi (human) (UniProt Q9BYF1); experiment: SPR; pH 5.5
# Sequence of soluble His-tagged human neonatal Fc receptor (human FcRn-His) (P55899 24-297): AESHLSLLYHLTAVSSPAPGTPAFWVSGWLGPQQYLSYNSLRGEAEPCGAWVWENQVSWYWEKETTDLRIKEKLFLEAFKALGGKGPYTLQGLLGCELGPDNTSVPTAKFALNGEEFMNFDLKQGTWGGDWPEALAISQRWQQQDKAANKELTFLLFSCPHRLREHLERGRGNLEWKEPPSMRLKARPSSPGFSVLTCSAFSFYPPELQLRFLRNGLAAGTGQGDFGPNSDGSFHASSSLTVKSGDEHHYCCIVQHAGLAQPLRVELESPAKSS
# Sequence of soluble His-tagged human neonatal Fc receptor (human FcRn-His) (P61769 21-119): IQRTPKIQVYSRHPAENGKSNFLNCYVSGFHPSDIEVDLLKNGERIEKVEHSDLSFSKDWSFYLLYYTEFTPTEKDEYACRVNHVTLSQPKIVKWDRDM
substance,measurement,setting,value
soluble His-tagged human neonatal Fc receptor (human FcRn-His) (from UniProt P55899 24-297; P61769 21-119),kon,[1],254000 M⁻¹ s⁻¹
same,Kd,[2],0.8 nM
same,koff,[2],0.0002 s⁻¹

# Source: publication PMC10703496
